# Source: US11994512B2, “Single-cell genomic methods to generate ex vivo cell systems that recapitulate in vivo biology with improved fidelity” (Massachusetts Institute of Technology, priority 2018, dated 2024)
# System: intracellular proteome of ENR+CD and ENR organoids
# Test: LC-MS/MS TMT proteomics of ENR+CD versus ENR organoids
# Format: cell-based, C57BL/6 mice
# Settings: for Average logFC / M1-1 Log2 Median Normalized / M1-2 Log2 Median Normalized / M2-1 Log2 Median Normalized / M2-2 Log2 Median Normalized: protein abundance, ENR+CD versus ENR organoids; for Average logFC: aggregate of the four sample pairs; for M1-1 Log2 Median Normalized: replicate M1-1; for M1-1 Log2 Median Normalized / M1-2 Log2 Median Normalized / M2-1 Log2 Median Normalized / M2-2 Log2 Median Normalized: log2 ratio; for M1-2 Log2 Median Normalized: replicate M1-2; for M2-1 Log2 Median Normalized: replicate M2-1; for M2-2 Log2 Median Normalized: replicate M2-2; for change: up = enriched in ENR+CD, down = enriched in ENR, FDR<0.05 and log fold change cut-off
Molecule,Average logFC,M1-1 Log2 Median Normalized,M1-2 Log2 Median Normalized,M2-1 Log2 Median Normalized,M2-2 Log2 Median Normalized,change
"P70429 (protein, UniProt P70429 1-414, looked up, full-length) MSEQSICQARASVMVYDDTSKKWVPIKPGQQGFSRINIYHNTASSTFRVVGVKLQDQQVVINYSIVKGLKYNQATPTFHQWRDARQVYGLNFASKEEATTFSNAMLFALNIMNSQEGGPSTQRQVQNGPSPEEMDIQRRQVMEQQHRQESLERRISATGPILPPGHPSSAASTTLSCSGPPPPPPPPVPPPPTGSTPPPPPPLPAGGAQGTNHDESSASGLAAALAGAKLRRVQRPEDASGGSSPSGTSKSDANRASSGGGGGGLMEEMNKLLAKRRKAASQTDKPADRKEDESQTEDPSTSPSPGTRATSQPPNSSEAGRKPWERSNSVEKPVSSLLSRTPSVAKSPEAKSPLQSQPHSRVKPAGSVNDVGLDALDLDRMKQEILEEVVRELHKVKEEIIDAIRQELSGISTT",1.275,1.275,1.519,1.2085,1.206,up
"P97449 (protein, UniProt P97449 1-966, looked up, full-length) MAKGFYISKTLGILGILLGVAAVCTIIALSVVYAQEKNRNAENSATAPTLPGSTSATTATTTPAVDESKPWNQYRLPKTLIPDSYRVILRPYLTPNNQGLYIFQGNSTVRFTCNQTTDVIIIHSKKLNYTLKGNHRVVLRTLDGTPAPNIDKTELVERTEYLVVHLQGSLVEGRQYEMDSQFQGELADDLAGFYRSEYMEGDVKKVVATTQMQAADARKSFPCFDEPAMKAMFNITLIYPNNLIALSNMLPKESKPYPEDPSCTMTEFHSTPKMSTYLLAYIVSEFKNISSVSANGVQIGIWARPSAIDEGQGDYALNVTGPILNFFAQHYNTSYPLPKSDQIALPDFNAGAMENWGLVTYRESSLVFDSQSSSISNKERVVTVIAHELAHQWFGNLVTVAWWNDLWLNEGFASYVEYLGADYAEPTWNLKDLMVLNDVYRVMAVDALASSHPLSSPADEIKTPDQIMELFDSITYSKGASVIRMLSSFLTEDLFKKGLSSYLHTYQYSNTVYLDLWEHLQKAVNQQTAVQPPATVRTIMDRWILQMGFPVITVNTNTGEISQKHFLLDSKSNVTRPSEFNYIWIAPIPFLKSGQEDHYWLDVEKNQSAKFQTSSNEWILLNINVTGYYLVNYDENNWKKLQNQLQTDLSVIPVINRAQIIHDSFNLASAKMIPITLALDNTLFLVKEAEYMPWQAALSSLNYFTLMFDRSEVYGPMKRYLKKQVTPLFFYFQNRTNNWVNRPPTLMEQYNEINAISTACSSGLKECRDLVVELYSQWMKNPNNNTIHPNLRSTVYCNAIAFGGEEEWNFAWEQFRNATLVNEADKLRSALACSKDVWILNRYLSYTLNPDYIRKQDTTSTIISIASNVAGHPLVWDFVRSNWKKLFENYGGGSFSFANLIQGVTRRFSSEFELQQLEQFKADNSATGFGTGTRALEQALEKTRANIDWVKENKDAVFKWFTENSS",1.247,1.246,1.528,1.2875,0.807,up
"P81117 (protein, UniProt P81117 1-420, looked up, full-length) MRWRIIQVQYCFLLVPCMLTALEAVPIDVDKTKVHNTEPVENARIEPPDTGLYYDEYLKQVIEVLETDPHFREKLQKADIEEIRSGRLSQELDLVSHKVRTRLDELKRQEVGRLRMLIKAKLDALQDTGMNHHLLLKQFEHLNHQNPNTFESRDLDMLIKAATADLEQYDRTRHEEFKKYEMMKEHERREYLKTLSEEKRKEEESKFEEMKRKHEDHPKVNHPGSKDQLKEVWEETDGLDPNDFDPKTFFKLHDVNNDGFLDEQELEALFTRELEKVYNPQNAEDDMIEMEEERLRMREHVMSEIDNNKDRLVTLEEFLRATEKKEFLEPDSWETLDQQQLFTEDELKEYESIIAIQENELKKRAEELQKQKEDLQRQHDHLEAQKQEYHQAVQHLEQKKLQQGIAPSGPAGELKFEPHT",1.372,1.736,1.385,1.0905,1.276,up
"P56695 (protein, UniProt P56695 1-890, looked up, full-length) MNSGTPPPSPSGPPPPPAPQPQARARLNATASLEQDKIEPPRAPRPQADPSAGRSAGEAAAPEPRAPQTGSREETDRAGPMKADVEIPFEEVLEKAKAGDPKAQTEVGKHYLRLANDADEELNSCSAVAWLILAAKQGRREAVKLLRRCLADRKGITSENEAEVKQLSSETDLERAVRKAALVMYWKLNPKKKKQVAVSELLENVGQVNEQDGGAQPGPVPKSLQKQRRMLERLVSSESKNYIALDDFVELTKKYAKGIIPTNLFLQDEDEDEDELAGKSPEDLPLRQKVVKYPLHAIMEIKEYLIDVASKAGMHWLSTIVPTHHINALIFFFIISNLTIDFFAFFIPLVVFYLSFVSMVICTLKVFQDSKAWENFRTLTDLLLRFEPNLDVEQAEVNFGWNHLEPYIHFLLSVVFVIFSFPLASKDCIPCSELAVISTFFTVTSYMSLSSSAEPYTRRALVTEVAAGLLSLLPTVPVDWRFLKVLGQTFFTVPVGHFIILNVSLPCLLYVYLFYLFFRMAQLRNFKGTYCYLVPYLVCFMWCELSVVILLQSTGLGLVRASIGYFLFLFALPILVAGLALMGTVQFARWFLSLDLTKIMVTTVICGVPLLFRWWTKANFSVMGMVKSLTKSSMVKLILVWLTAILLFCWFYVYRSEGMKVYNSTLTWQQYGFLCGPRAWKETNMARTQILCSHLEGHRVTWTGRFKYVRVTEIDNSAESAINMLPFFLGDWMRCLYGEAYPSCSSGNTSTAEEELCRLKQLAKHPCHIKKFDRYKFEITVGMPFGTNGNRGHEEDDITKDIVLRASSEFKDVLLNLRQGSLIEFSTILEGRLGSKWPVFELKAISCLNCMTQLSPARRHVKIEQDWRSTVHGALKFAFDFFFFPFLSAA",1.149,1.527,0.901,0.7335,1.433,up
"P56395 (protein, UniProt P56395 1-134, looked up, full-length) MAGQSDKDVKYYTLEEIQKHKDSKSTWVILHHKVYDLTKFLEEHPGGEEVLREQAGGDATENFEDVGHSTDARELSKTYIIGELHPDDRSKIAKPSDTLITTVESNSSWWTNWVIPAISALAVALMYRLYMAED",−1.382,−1.162,−0.964,−1.6925,−1.71,down
"P60824 (protein, UniProt P60824 1-172, looked up, full-length) MASDEGKLFVGGLSFDTNEQALEQVFSKYGQISEVVVVKDRETQRSRGFGFVTFENIDDAKDAMMAMNGKSVDGRQIRVDQAGKSSDNRSRGYRGGSAGGRGFFRGGRSRGRGFSRGGGDRGYGGGRFESRSGGYGGSRDYYASRSQGGSYGYRSSGGSYRDSYDSYATHNE",1.155,0.902,1.138,1.3145,1.267,up
"P55050 (protein, UniProt P55050 1-132, looked up, full-length) MAFDGTWKVDRNENYEKFMEKMGINVMKRKLGAHDNLKLTITQDGNKFTVKESSNFRNIDVVFELGVNFPYSLADGTELTGAWTIEGNKLIGKFTRVDNGKELIAVREVSGNELIQTYTYEGVEAKRFFKKE",−1.721,−1.558,−2.656,−2.1955,−0.474,down
"P63158 (protein, UniProt P63158 1-215, looked up, full-length) MGKGDPKKPRGKMSSYAFFVQTCREEHKKKHPDASVNFSEFSKKCSERWKTMSAKEKGKFEDMAKADKARYEREMKTYIPPKGETKKKFKDPNAPKRPPSAFFLFCSEYRPKIKGEHPGLSIGDVAKKLGEMWNNTAADDKQPYEKKAAKLKEKYEKDIAAYRAKGKPDAAKKGVVKAEKSKKKKEEEDDEEDEEDEEEEEEEEDEDEEEDDDDE",−1.338,−1.875,−1.062,−1.2145,−1.339,down
"P97290 (protein, UniProt P97290 1-504, looked up, full-length) MASRLTPLTLLLLLLAGDRAFSDPEATSHSTQDPLEAQAKSRESFPERDDSWSPPEPTVLPSTWPTTSVAITITNDTMGKVANESFSQHSQPAAQLPTDSPGQPPLNSSSQPSTASDLPTQATTEPFCPEPLAQCSDSDRDSSEAKLSEALTDFSVKLYHAFSATKMAKTNMAFSPFSIASLLTQVLLGAGDSTKSNLESILSYPKDFACVHQALKGFSSKGVTSVSQIFHSPDLAIRDTYVNASQSLYGSSPRVLGPDSAANLELINTWVAENTNHKIRKLLDSLPSDTCLVLLNAVYLSAKWKITFEPKKMMAPFFYKNSMIKVPMMSSVKYPVAQFDDHTLKAKVGQLQLSHNLSFVIVVPVFPKHQLKDVEKALNPTVFKAIMKKLELSKFLPTYLTMPHIKVKSSQDMLSVMEKLEFFDFTYDLNLCGLTEDPDLQVSAMKHETVLELTESGVEAAAASAISFGRSLPIFEVQRPFLFLLWDQQHRFPVFMGRVYDPRG",1.245,1.362,1.123,1.2185,1.278,up
"P97314 (protein, UniProt P97314 1-193, looked up, full-length) MPVWGGGNKCGACGRTVYHAEEVQCDGRSFHRCCFLCMVCRKNLDSTTVAIHDEEIYCKSCYGKKYGPKGYGYGQGAGTLNMDRGERLGIKPESAQPHRPTTNPNTSKFAQKYGGAEKCSRCGDSVYAAEKIIGAGKPWHKNCFRCAKCGKSLESTTLTEKEGEIYCKGCYAKNFGPKGFGYGQGAGALVHAQ",−1.204,−1.447,−1.021,−1.3045,−1.045,down
